Assay results taken from patent US11111484B2, “Streptococcus bacteriophage lysins for detection and treatment of gram positive bacteria” (priority 2011, dated 2021).

What was measured:
S. aureus strains = assay: PlySs2 lytic activity against species and strains (FIG. 25); format: cell-based, Staphylococcus aureus; settings: all tested S. aureus strains; 32 μg/ml, 60 minutes
Protocol: FIG. 25 provides PlySs2 activity against different species and strains. Log-phase cultures were exposed to 32 μg/ml PlySs2 for 60 minutes in phosphate buffer. The final OD600 of the treated samples were divided by the final OD600 of the untreated samples to generate the normalized values above. Multiple Staphylococci (including, but not limited to: MRSA, MSSA, and VISA), Streptococci, Listeria, Enterococci, and Bacilli were tested for susceptibility to PlySs2 activity. Escherichia and Pseudomonas were tested as Gram-negative controls.

S. suis S735 (ST2) = assay: ΔPlySs1 CFU analysis, 1 hr treatment; format: cell-based, Streptococcus suis
Protocol: (§1) Truncated PlySs1(ΔPlySs1) lysin activity was determined against different cell types. Given the above experiments, the following optimal buffering conditions were employed for all further in vitro experiments with ΔPlySs1: 20 mM phosphate buffer, pH=7.8, 2 mM EDTA. A range of lysin concentrations, from 6.5-130 μg/ml, were introduced to live S. suis cells in this buffer. Three strains were considered particularly relevant: 7711, the serotype 7 strain that encodes PlySs1; S735, the serotype 2 reference strain; and 7997, a highly virulent serotype 9 strain. In terms of bacterial viability, only the highest PlySs1-concentration (130 μg/ml) led to a >90% decrease in CFUs for 7711, S735, and 7997 after 1 hr treatment (TABLE 2). The lysin was also tested against actively-dividing cells in broth culture (strain 7711) (FIG. 20).
(§2) For two ΔPlySs1 concentrations (130 and 13 μg/ml), CFU analysis was conducted on S. suis strains S735, 7997, and 7711 after 1 hr treatment (optimal buffering conditions). In each experiment, the percentage-decrease in CFUs was determined for the treated sample versus the untreated. The range of the values observed (across 3 independent experiments) is reported here for each strain. The serotype of each strain is indicated in parentheses.

S. suis 7997 (ST9) = assay: ΔPlySs1 CFU analysis, 1 hr treatment; format: cell-based, Streptococcus suis
Protocol: as §1, §2

S. suis 7711 (ST7) = assay: ΔPlySs1 CFU analysis, 1 hr treatment; format: cell-based, Streptococcus suis
Protocol: as §1, §2

S. equi 700400 = assay: ΔPlySs1 OD600 lysis, 1 hr, optimal buffering conditions; format: cell-based, Streptococcus equi
S. pneumoniae R36 = assay: as above; format: cell-based, Streptococcus pneumoniae
L. monocytogenes HER1084 = assay: as above; format: cell-based, Listeria monocytogenes
S. pyogenes D471 = assay: as above; format: cell-based, Streptococcus pyogenes
S. mutans U159 = assay: as above; format: cell-based, Streptococcus mutans
S. oralis 35037 = assay: as above; format: cell-based, Streptococcus oralis
S. suis strain 7711 = assay: ΔPlySs1 biochemical characterization, turbidity reduction (OD600); format: cell-based, Streptococcus suis; settings: for activity after 6 hours at 40° C. / activity after 6 hours at 45° C.: 6-hr incubation; for pH of maximal activity in bis-tris-propane: BTP 40 mM, pH 7.0-9.7, 110 μg/ml; for temperature at which activity completely abolished: held 30 min at 35° C.-60° C.; for effect of DTT on activity: pre-incubated 1 hr with 5 mM DTT
Protocol: The optimal biochemical conditions for PlySs1 were determined against live cells of the encoding S. suis strain (7711). For these experiments, activity was gauged through the degree of turbidity reduction (OD600) of an aqueous bacterial suspension following the addition of lysin. The pH-dependence of the enzyme was first addressed using two buffer sets with adjacent pH ranges, citrate/phosphate: 4.6-8.0; and bis-tris-propane (BTP): 7.0-9.7. An extended spectrum of lysis was observed, from 5.4-9.4 (FIG. 11A). In BTP, lysis was maximal from 8.2-9.0; at commensurate pH-values, however, the magnitude of the OD-drop was slightly more pronounced in citrate/phosphate (FIG. 11B).
The thermal stability of PlySs1 was examined by incubating the enzyme at various elevated temperatures prior to use (the OD-drop experiment itself was always conducted at 37° C.). When held at 35° C.-60° C. for 30 min, lysin activity was virtually unaffected until 50° C., at which point it was completely abolished (FIG. 14A). […] The latter corresponds to typical porcine body temperature.

B1: PlySs2: Streptococcus suis prophage lysin, SEQ ID NO:3; N-terminal CHAP domain and C-terminal SH3-type 5 domain (protein, listed as Streptococcus suis)
chain: MTTVNEALNNVRAQVGSGVSVGNGECYALASWYERMISPDATVGLGAGVGWVSGAIGDTISAKNIGSSYNWQANGWTVSTSGPFKAGQIVTLGATPGNPYGHVVIVEAVDGDRLTILEQNYGGKRYPVRNYYSAASYRQQVVHYITPPGTVAQSAPNLAGSRSYRETGTMTVTVDALNVRRAPNTSGEIVAVYKRGESFDYDTVIIDVNGYVWVSYIGGSGKRNYVATGATKDGKRFGNAWGTFK
susceptibility to PlySs2 lysis (S. aureus strains): highly susceptible

B2: ΔPlySs1: truncated PlySs1 lysin, SEQ ID NO:2, N-terminal 254 amino acids: only N-terminal enzymatic and central binding domains (protein, listed as Streptococcus suis)
chain: MTINLETSIRWMSDRVGKVSYSMDYRNGPNSYDCSSAVYYALMAGGAISAGWAVNTEYMHDWLIRNGYVLVAENKPFNAQRHDVCILGKRGYSSGAGGHVVIFVDNVNVIHCNYARNGISIDNYNQVHRGMYYYLYRPANQPSISNKSLDQLVKETLAGVHGNGDTRKASLGSQYEAVMAVINGKASASEKSDEELAREVLAGKHGAGEDRKRSLGPRYEPVQAKVNELLKAKEKPSETAKNEPQTVQFKEDGDL
percentage-decrease in CFUs, range of 3 experiments (S. suis S735 (ST2); 13 μg/ml): 80.4%-92.6%
percentage-decrease in CFUs, range of 3 experiments (S. suis S735 (ST2); 130 μg/ml): 95.4%-99.5%
percentage-decrease in CFUs, range of 3 experiments (S. suis S735 (ST2); 130 μg/ml, listed as PlySs1): > 90%
percentage-decrease in CFUs, range of 3 experiments (S. suis 7997 (ST9); 13 μg/ml): 16.8%-30.3%
percentage-decrease in CFUs, range of 3 experiments (S. suis 7997 (ST9); 130 μg/ml): 89.9%-93.9%
percentage-decrease in CFUs, range of 3 experiments (S. suis 7997 (ST9); 130 μg/ml, listed as PlySs1): > 90%
percentage-decrease in CFUs, range of 3 experiments (S. suis 7711 (ST7); 13 μg/ml): 0%-35.6%
percentage-decrease in CFUs, range of 3 experiments (S. suis 7711 (ST7); 130 μg/ml): 95.3%-99.2%
percentage-decrease in CFUs, range of 3 experiments (S. suis 7711 (ST7); 130 μg/ml, listed as PlySs1): > 90%
lysis value after 1 hr (treated/untreated OD600 ratio) (S. equi 700400; 6.5 μg/ml): 0.48
lysis value after 1 hr (treated/untreated OD600 ratio) (S. equi 700400; 13 μg/ml): 0.25
lysis value after 1 hr (treated/untreated OD600 ratio) (S. equi 700400; 30 μg/ml): 0.15
lysis value after 1 hr (treated/untreated OD600 ratio) (S. equi 700400; 65 μg/ml): 0.07
lysis value after 1 hr (treated/untreated OD600 ratio) (S. equi 700400; 130 μg/ml): 0.09
lysis value after 1 hr (treated/untreated OD600 ratio) (S. pneumoniae R36; 6.5 μg/ml): 0.25
lysis value after 1 hr (treated/untreated OD600 ratio) (S. pneumoniae R36; 13 μg/ml): 0.22
lysis value after 1 hr (treated/untreated OD600 ratio) (S. pneumoniae R36; 30 μg/ml): 0.14
lysis value after 1 hr (treated/untreated OD600 ratio) (S. pneumoniae R36; 65 μg/ml): 0.16
lysis value after 1 hr (treated/untreated OD600 ratio) (S. pneumoniae R36; 130 μg/ml): 0.12
lysis value after 1 hr (treated/untreated OD600 ratio) (L. monocytogenes HER1084; 6.5 μg/ml): 0.63
lysis value after 1 hr (treated/untreated OD600 ratio) (L. monocytogenes HER1084; 13 μg/ml): 0.52
lysis value after 1 hr (treated/untreated OD600 ratio) (L. monocytogenes HER1084; 30 μg/ml): 0.26
lysis value after 1 hr (treated/untreated OD600 ratio) (L. monocytogenes HER1084; 65 μg/ml): 0.14
lysis value after 1 hr (treated/untreated OD600 ratio) (L. monocytogenes HER1084; 130 μg/ml): 0.04
lysis value after 1 hr (treated/untreated OD600 ratio) (S. pyogenes D471; 6.5 μg/ml): 0.39
lysis value after 1 hr (treated/untreated OD600 ratio) (S. pyogenes D471; 13 μg/ml): 0.27
lysis value after 1 hr (treated/untreated OD600 ratio) (S. pyogenes D471; 30 μg/ml): 0.17
lysis value after 1 hr (treated/untreated OD600 ratio) (S. pyogenes D471; 65 μg/ml): 0.13
lysis value after 1 hr (treated/untreated OD600 ratio) (S. pyogenes D471; 130 μg/ml): 0.09
lysis value after 1 hr (treated/untreated OD600 ratio) (S. mutans U159; 6.5 μg/ml): 0.95
lysis value after 1 hr (treated/untreated OD600 ratio) (S. mutans U159; 13 μg/ml): 0.99
lysis value after 1 hr (treated/untreated OD600 ratio) (S. mutans U159; 30 μg/ml): 0.94
lysis value after 1 hr (treated/untreated OD600 ratio) (S. mutans U159; 65 μg/ml): 0.76
lysis value after 1 hr (treated/untreated OD600 ratio) (S. mutans U159; 130 μg/ml): 0.85
lysis value after 1 hr (treated/untreated OD600 ratio) (S. oralis 35037; 6.5 μg/ml): 0.30
lysis value after 1 hr (treated/untreated OD600 ratio) (S. oralis 35037; 13 μg/ml): 0.13
lysis value after 1 hr (treated/untreated OD600 ratio) (S. oralis 35037; 30 μg/ml): 0.08
lysis value after 1 hr (treated/untreated OD600 ratio) (S. oralis 35037; 65 μg/ml): 0.07
lysis value after 1 hr (treated/untreated OD600 ratio) (S. oralis 35037; 130 μg/ml): 0.04
effect of NaCl on bacteriolysis (S. suis strain 7711; 0-1000 mM NaCl): bacteriolysis varied little
activity after 6 hours at 40° C. (S. suis strain 7711): maintained essentially native activity
activity after 6 hours at 40° C. (S. suis strain 7711; listed as PlySs1): unaffected
activity after 6 hours at 45° C. (S. suis strain 7711): some loss of activity, though not complete
activity after 6 hours at 45° C. (S. suis strain 7711; listed as PlySs1): partial decrease in activity
pH of maximal activity in bis-tris-propane (S. suis strain 7711): 9.0
pH of maximal activity in bis-tris-propane (S. suis strain 7711; listed as PlySs1): 8.2-9.0
pH spectrum of lysis (S. suis strain 7711; citrate/phosphate 4.6-8.0 and BTP 7.0-9.7): 5.4-9.4
effect of EDTA on activity (S. suis strain 7711; excess EDTA): did not negatively impact activity
temperature at which activity completely abolished (S. suis strain 7711): complete loss of activity was observed between the 45 °C and 50 °C samples
temperature at which activity completely abolished (S. suis strain 7711; listed as PlySs1): 50 °C
effect of DTT on activity (S. suis strain 7711): activity was unchanged
effect of DTT on activity (S. suis strain 7711; listed as PlySs1): did not negatively impact activity
